Test results from publication PMC7560827, “Immunodominant proteins P1 and P40/P90 from human pathogen Mycoplasma pneumoniae” (Nature Communications, 2020).

What was measured:
Conditions in all cases: both partners purified
[1] = target: P40/P90N (short construct of P40/P90, residues Ser23-Val1003) (Mycoplasma pneumoniae, UniProt Q50341 23-1003); experiment: SEC
[2] = target: P40/P90 long construct (residues 23-1114) (Mycoplasma pneumoniae, UniProt Q50341 23-1114); experiment: SEC
[3] = target: T1, P90N polypeptide (Ala446 to the C-end of P40/P90N) (Mycoplasma pneumoniae, UniProt Q50341 446-1003); experiment: SEC-MALS
T1 construct: source: E. coli B834 (DE3), cleavage product in purified P40/P90N samples
T1 sequence: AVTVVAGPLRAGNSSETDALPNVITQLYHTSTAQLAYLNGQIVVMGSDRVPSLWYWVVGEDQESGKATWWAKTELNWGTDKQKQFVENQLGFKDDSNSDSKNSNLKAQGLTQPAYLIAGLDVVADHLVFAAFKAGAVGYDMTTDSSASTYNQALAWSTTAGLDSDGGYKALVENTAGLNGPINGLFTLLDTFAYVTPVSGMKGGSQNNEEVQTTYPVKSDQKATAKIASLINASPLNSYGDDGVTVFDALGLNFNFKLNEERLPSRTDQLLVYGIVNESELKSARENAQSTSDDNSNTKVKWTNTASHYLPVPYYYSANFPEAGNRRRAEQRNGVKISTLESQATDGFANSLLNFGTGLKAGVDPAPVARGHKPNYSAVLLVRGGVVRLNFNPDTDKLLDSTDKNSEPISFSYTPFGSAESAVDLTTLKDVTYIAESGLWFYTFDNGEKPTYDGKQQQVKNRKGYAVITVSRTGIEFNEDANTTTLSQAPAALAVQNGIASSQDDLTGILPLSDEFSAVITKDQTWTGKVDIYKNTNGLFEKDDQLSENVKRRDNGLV

B1: P1 extracellular region (residues Thr29-Asp1521) (domain or fragment)
chain: TVVGHFTSTTTTLKRQQFSYTRPDEVALRHTNAINPRLTPWTYRNTSFSSLPLTGENPGAWALVRDNSAKGITAGSGSQQTTYDPTRTEAALTASTTFALRRYDLAGRALYDLDFSKLNPQTPTRDQTGQITFNPFGGFGLSGAAPQQWNEVKNKVPVEVAQDPSNPYRFAVLLVPRSVVYYEQLQRGLGLPQQRTESGQNTSTTGAMFGLKVKNAEADTAKSNEKLQGAEATGSSTTSGSGQSTQRGGSSGDTKVKALKIEVKKKSDSEDNGQLQLEKNDLANAPIKRSEESGQSVQLKADDFGTALSSSGSGGNSNPGSPTPWRPWLATEQIHKDLPKWSASILILYDAPYARNRTAIDRVDHLDPKAMTANYPPSWRTPKWNHHGLWDWKARDVLLQTTGFFNPRRHPEWFDGGQTVADNEKTGFDVDNSENTKQGFQKEADSDKSAPIALPFEAYFANIGNLTWFGQALLVFGGNGHVTKSAHTAPLSIGVFRVRYNATGTSATVTGWPYALLFSGMVNKQTDGLKDLPFNNNRWFEYVPRMAVAGAKFVGRELVLAGTITMGDTATVPRLLYDELESNLNLVAQGQGLLREDLQLFTPYGWANRPDLPIGAWSSSSSSSHNAPYYFHNNPDWQDRPIQNVVDAFIKPWEDKNGKDDAKYIYPYRYSGMWAWQVYNWSNKLTDQPLSADFVNENAYQPNSLFAAILNPELLAALPDKVKYGKENEFAANEYERFNQKLTVAPTQGTNWSHFSPTLSRFSTGFNLVGSVLDQVLDYVPWIGNGYRYGNNHRGVDDITAPQTSAGSSSGISTNTSGSRSFLPTFSNIGVGLKANVQATLGGSQTMITGGSPRRTLDQANLQLWTGAGWRNDKASSGQSDENHTKFTSATGMDQQGQSGTSAGNPDSLKQDNISKSGDSLTTQDGNAIDQQEATNYTNLPPNLTPTADWPNALSFTNKNNAQRAQLFLRGLLGSIPVLVNRSGSDSNKFQATDQKWSYTDLHSDQTKLNLPAYGEVNGLLNPALVETYFGNTRAGGSGSNTTSSPGIGFKIPEQNNDSKATLITPGLAWTPQDVGNLVVSGTTVSFQLGGWLVTFTDFVKPRAGYLGLQLTGLDASDATQRALIWAPRPWAAFRGSWVNRLGRVESVWDLKGVWADQAQSDSQGSTTTATRNALPEHPNALAFQVSVVEASAYKPNTSSGQTQSTNSSPYLHLVKPKKVTQSDKLDDDLKNLLDPNQVRTKLRQSFGTDHSTQPQPQSLKTTTPVFGTSSGNLSSVLSGGGAGGGSSGSGQSGVDLSPVEKVSGWLVGQLPSTSDGNTSSTNNLAPNTNTGNDVVGVGRLSESNAAKMNDDVDGIVRTPLAELLDGEGQTADTGPQSVKFKSPDQIDFNRLFTHPVTDLFDPVTMLVYDQYIPLFIDIPASVNPKMVRLKVLSFDTNEQSLGLRLEFFKPDQDTQPNNNVQVNPNNGDFLPLLTASSQGPQTLFSPFNQWPD
notes: source: E. coli B834 (DE3), purified (HisTrap, Superdex 200)
B1: binds [1]; binds [2].

B2: P40 polypeptide (from the N-end of P40/P90N to Arg445) (domain or fragment)
chain: SLANTYLLQDHNTLTPYTPFTTPLNGGLDVVRAAHLHPSYELVDWKRVGDTKLVALVRSALVRVKFQDTTSSDQSNTNQNALSFDTQESQKALNGSQSGSSDTSGSNSQDFASYVLIFKAAPRATWVFERKIKLALPYVKQESQGSGDQGSNGKGSLYKTLQDLLVEQPVTPYTPNAGLARVNGVAQDTVHFGSGQESSWNSQRSQKGLKNNPGPKAVTGFKLDKGRAYRKLNESWPVYEPLDSTKEGKGKDESSWKNSEKTTAENDAPLVGMVGSGAAGSASSLQGNGSNSSGLKSLLRSAPVSVPPSSTSNQTLSLSNPAPVGPQAVVSQPAGGATAAVSVNRTASDTATFSKYLNTAQALHQMGVIVPGLEKWGGNNGTGVVASRQDATSTNLPHAAGASQTGLGTGSPREPALTATSQR
notes: source: E. coli B834 (DE3), cleavage product in purified P40/P90N samples
B2: binds [3].
